What all share (test): EMSA
One data set addresses T1, Cus2p Y48D (Saccharomyces cerevisiae, UniProt P53830 1-285, Y48D).
T1 sequence: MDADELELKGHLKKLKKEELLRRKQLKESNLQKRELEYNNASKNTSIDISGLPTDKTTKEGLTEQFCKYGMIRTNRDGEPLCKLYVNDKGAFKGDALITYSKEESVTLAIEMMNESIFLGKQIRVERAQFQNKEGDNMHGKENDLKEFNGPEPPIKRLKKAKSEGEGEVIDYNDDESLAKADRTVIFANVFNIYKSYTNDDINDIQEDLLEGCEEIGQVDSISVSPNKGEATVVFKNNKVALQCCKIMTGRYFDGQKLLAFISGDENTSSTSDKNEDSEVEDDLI

In data set [1] the target is T2, Cus2p WT (Saccharomyces cerevisiae, UniProt P53830 1-285).
T2 sequence: T1 sequence with D48Y

Data set [2] concerns the target T2, Cus2p WT. The source holds these as a separate data set.
The target of data set [3] is T2, Cus2p WT. This is another data set of the same source.

Where a chain is given by its changes, count along the chain named. Names may count otherwise. Like-named read-outs stand apart in the source and are kept apart here.

B1: stem IIc-stabilized U2 core RNA (structured_RNA)
RNA: GUAGUAUCUGUUCUUUUCAAUGUAACAACUGAAAUGACCUCAAUGAGGCUCAUUACCUUUUCAGUUGUUACAAUACACAUUUUUUGG
With B1, the binding result in the data set with Cus2p Y48D and with Cus2p WT [1] was “binds” throughout.

B2: G53A U2 core RNA (structured_RNA)
RNA: B1 RNA with C62A, G64U
In the case of B2, the binding result in the data set with Cus2p WT [2] is reported as “binds”.

B3: stem IIa-stabilized U2 core RNA (structured_RNA)
RNA: GUAGUAUCUGUUCUUUGCGGUGUAACAACCGCAAUGACCUCAAUGAGGCUCAUUACCUUUUAAAUACACAUUUUUUGG
In the case of B3, in the data set with Cus2p WT [3], the binding result was “binds”.
